Data from PMC11289442 (Nature Communications, 2024).
Each block holds one molecule with its values, some of them ahead of it.

What was measured:
Assay in all cases: SDS-PAGE without heat denaturation and immunoblot
[1] = target: CFP-OsUVR8b (in transgenic Arabidopsis uvr8-6) (rice (Oryza sativa))
[2] = target: CFP-OsUVR8a (in transgenic Arabidopsis uvr8-6) (rice (Oryza sativa))
[3] = target: the molecule itself

- stoichiometry N [1]: 2
Molecule: CFP-OsUVR8b (in transgenic Arabidopsis uvr8-6) (natural protein)

- stoichiometry N [2]: 2
Molecule: CFP-OsUVR8a (in transgenic Arabidopsis uvr8-6) (natural protein)

B1: CFP-OsUVR8a (in transgenic rice) (natural protein)
chain: MHSTGMEMEVEVAGDDEAVPEAPERSVVLISAGASHSVALLSGGVVCSWGRGEDGQLGHGDAEDRPVPTVLTAAFDDAPGGVASVVICGADHTTAYSDEELQLYSWGWGDFGRLGHGNSSDVFNPQPIQALQGVRITQIACGDSHCLAVTVAGHVHSWGRNQNGQLGLGNTEDSLLPQKIQAFEGVRVKMIAAGAEHTAAVTEDGDLYGWGWGRYGNLGLGDRDDRLIPEKVSSVNGQKMVLVACGWRHTITVSSSGSIYTYGWSKYGQLGHGDFEDHLVPHKLEALKDTTISQISGGWRHTMALAADGKLYGWGWNKFGQVGVGDNEDHCSPVQVNFPNEQKVVQVACGWRHTLALTEAKNVFSWGRGTSGQLGHGEIVDRNIPKMIDALSSDGSACKQLESSKAVPMSAKVWVSPSERYAIVPDEKAGKGIPAGNGTETHVPQGDVKRMRV
- stoichiometry N [3]: 2

B2: CFP-OsUVR8b (in transgenic rice) (natural protein)
chain: MDAVMSAADDAGAASGREDPPPAVVLVSAGASHSVALLAGNVLCSWGRGEDGQLGHGDAEDRLVPTVLSGFDAAAPGITSVICGADHTTAYSEDEQQVYSWGWGDFGRLGHGNSSDVFTPQPVKALQGIKIKQIACGDSHCLAVTMAGEVQSWGRNQNGQLGLGTTEDSLLPQKIQSFEGVCVKMIAAGAEHTAAVTEDGDLYGWGWGRYGNLGLGDRNDRLVPEKVSSVEGEKMVLIACGWRHTITVSSSGSLYTYGWSKYGQLGHGDFEDHLVPHKLEALKDSSISQISGGWRHTMALTSDGKLYGWGWNKFGQVGVGDTDDHCFPVQVKFPEDQKVAQVACGWRHTLAFTEKKNVFSWGRGTSGQLGHGEIVDRNKPVMIDALSPDGPGCKKLEPSTAVPFAAKVWVSPSERYAIVPDEKVPNSGEGTARGNGADANVPENDVKRMRVHS
- stoichiometry N [3]: 2
